This note sets out measurements from the supplement of paper PMC5998384.

For series [1], the system named is HeLa Kyoto. In words: solubility in G1/S (NP-40 vs SDS abundance) (log2 ratio); higher = more soluble. The conditions noted are these: cell cycle stage: G1/S.
Series [2] has as its system HeLa Kyoto. In words: melting temperature (median over replicates), in situ; higher = more thermally stable.
In series [3] the test system is HeLa Kyoto. In words: solubility change mitosis vs G1/S (difference of NP-40 vs SDS log2 ratios) (log2 ratio difference); higher = more soluble in mitosis.
In series [4] the test system is HeLa Kyoto. In words: thermal stability score vs G1/S (z-score of summed log2 fold changes over temperatures); higher = more thermally stable than in G1/S.
The mark [5] stands for this setting: cell cycle stage: early G1 (4.5 h after nocodazole release).
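Wherever melting temperature (median over replicates), in situ is given: HeLa Kyoto cells synchronized by double thymidine or nocodazole block, proteins quantified by TMT10plex mass spectrometry, three independent biological replicates.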
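Wherever solubility change mitosis vs G1/S (difference of NP-40 vs SDS log2 ratios) is given: synchronized HeLa Kyoto cells (double thymidine block for G1/S, nocodazole release for mitosis), protein amounts in NP-40 versus SDS lysates quantified by mass spectrometry, three biological replicates.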
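Wherever solubility in G1/S (NP-40 vs SDS abundance) is given: HeLa Kyoto cells arrested at G1/S by double thymidine block, proteins quantified by TMT10plex mass spectrometry in mild NP-40 versus SDS extracts, three biological replicates.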
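Wherever thermal stability score vs G1/S (z-score of summed log2 fold changes over temperatures) is given: synchronized HeLa Kyoto cells, proteins quantified by TMT10plex mass spectrometry, three biological replicates, mitosis taken 0.5 h after nocodazole release, G1/S directly after double thymidine block.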

As to “MDDIFTQCREGNAVAVRLWLDNTENDLNQGDDHGFSPLHWACREGRSAVVEMLIMRGARINVMNRGDDTPLHLAASHGHRDIVQKLLQYKADINAVNEHGNVPLHYACFWGQDQVAEDLVANGALVSICNKYGEMPVDKAKAPLRELLRERAEKMGQNLNRIPYKDTFWKGTTRTRPRNGTLNKHSGIDFKQLNFLTKLNENHSGELWKGRWQGNDIVVKVLKVRDWSTRKSRDFNEECPRLRIFSHPNVLPVLGACQSPPAPHPTLITHWMPYGSLYNVLHEGTNFVVDQSQAVKFALDMARGMAFLHTLEPLIPRHALNSRSVMIDEDMTARISMADVKFSFQCPGRMYAPAWVAPEALQKKPEDTNRRSADMWSFAVLLWELVTREVPFADLSNMEIGMKVALEGLRPTIPPGISPHVCKLMKICMNEDPAKRPKFDMIVPILEKMQDK [ILK]”, the “solubility in G1/S (log2)” value in series [1] was found to be 0.274. The melting temperature in series [2] (cell cycle stage: G1/S) stood at 50.1 °C; in series [2] (cell cycle stage: mitosis), 50 °C. In series [3], the “solubility change mitosis (log2)” value was -0.135. Besides, the results for the thermal stability score in series [4] (setting [5]) and in series [4] (cell cycle stage: mitosis) were 1.36 and 1.76, respectively.
As for “MPKLQGFEFWSRTLRGARHVVAPMVDQSELAWRLLSRRHGAQLCYTPMLHAQVFVRDANYRKENLYCEVCPEDRPLIVQFCANDPEVFVQAALLAQDYCDAIDLNLGCPQMIAKRGHYGAFLQDEWDLLQRMILLAHEKLSVPVTCKIRVFPEIDKTVRYAQMLEKAGCQLLTVHGRTKEQKGPLSGAASWEHIKAVRKAVAIPVFANGNIQCLQDVERCLRDTGVQGVMSAEGNLHNPALFEGRSPAVWELAEEYLDIVREHPCPLSYVRAHLFKLWHHTLQVHQELREELAKVKTLEGIAAVSQELKLRCQEEISRQEGAKPTGDLPFHWICQPYIRPGPREGSKEKAGARSKRALEEEEGGTEVLSKNKQKKQLRNPHKTFDPSLKPKYAKCDQCGNPKGNRCVFSLCRGCCKKRASKETADCPGHGLLFKTKLEKSLAWKEAQPELQEPQPAAPGTPGGFSEVMGSALA [DUS1L]”, the “solubility in G1/S (log2)” value in series [1] stood at 0.086. Further, the melting temperature in series [2] (cell cycle stage: G1/S) amounted to 47.3 °C; in series [2] (cell cycle stage: mitosis) it was 48.9 °C. Moreover, the “solubility change mitosis (log2)” value in series [3] is -0.169. The thermal stability score was determined as 0.994 in series [4] (setting [5]) and 1.71 in series [4] (cell cycle stage: mitosis).
On to “MPPPQGDVTALFLGPPGLGKSALIAALCDKDVETLEAPEGRPDSGVPSLRAAGPGLFLGELSCPPAAPGPWAAEANVLVLVLPGPEGNGEPLAPALGEAALAALARGTPLLAVRNLRPGDSQTAAQARDQTAALLNSAGLGAADLFVLPANCGSSDGCEELERLRAALQSQAEALRRLLPPAQDGFEVLGAAELEAVREAFETGGLEAALSWVRSGLERLGSARLDLAVAGKADVGLVVDMLLGLDPGDPGAAPASVPTAPTPFPAPERPNVVLWTVPLGHTGTATTAAAASHPTHYDALILVTPGAPTEKDWAQVQALLLPDAPLVCVRTDGEGEDPECLGEGKMENPKGESLKNAGGGGLENALSKGREKCSAGSQKAGSGEGPGKAGSEGLQQVVGMKKSGGGDSERAAALSPEDETWEVLEEAPPPVFPLRPGGLPGLCEWLRRALPPAQAGALLLALPPASPSAARTKAAALRAGAWRPALLASLAAAAAPLPGLGWACDVALLRGQLAEWRRGLGLEPTALARRERALGLASGELAARAHFPGPVTRAEVEARLGAWAGEGTAGGAALGALSFLWPAGGAAATGGLGYRAAHGVLLQALDEMRADAEAVLAPPEPAQ [IRGQ]”, for which the “solubility in G1/S (log2)” value in series [1] is 0.437. The melting temperature in series [2] (cell cycle stage: G1/S) and in series [2] (cell cycle stage: mitosis) was 51.3 °C in each case. Further, in series [3], the “solubility change mitosis (log2)” value amounted to 0.141. Further, the values for the thermal stability score in series [4] (setting [5]) and in series [4] (cell cycle stage: mitosis) were -0.649 and 0.0432, respectively.
Regarding “MPATRKPMRYGHTEGHTEVCFDDSGSFIVTCGSDGDVRIWEDLDDDDPKFINVGEKAYSCALKSGKLVTAVSNNTIQVHTFPEGVPDGILTRFTTNANHVVFNGDGTKIAAGSSDFLVKIVDVMDSSQQKTFRGHDAPVLSLSFDPKDIFLASASCDGSVRVWQISDQTCAISWPLLQKCNDVINAKSICRLAWQPKSGKLLAIPVEKSVKLYRRESWSHQFDLSDNFISQTLNIVTWSPCGQYLAAGSINGLIIVWNVETKDCMERVKHEKGYAICGLAWHPTCGRISYTDAEGNLGLLENVCDPSGKTSSSKVSSRVEKDYNDLFDGDDMSNAGDFLNDNAVEIPSFSKGIINDDEDDEDLMMASGRPRQRSHILEDDENSVDISMLKTGSSLLKEEEEDGQEGSIHNLPLVTSQRPFYDGPMPTPRQKPFQSGSTPLHLTHRFMVWNSIGIIRCYNDEQDNAIDVEFHDTSIHHATHLSNTLNYTIADLSHEAILLACESTDELASKLHCLHFSSWDSSKEWIIDLPQNEDIEAICLGQGWAAAATSALLLRLFTIGGVQKEVFSLAGPVVSMAGHGEQLFIVYHRGTGFDGDQCLGVQLLELGKKKKQILHGDPLPLTRKSYLAWIGFSAEGTPCYVDSEGIVRMLNRGLGNTWTPICNTREHCKGKSDHYWVVGIHENPQQLRCIPCKGSRFPPTLPRPAVAILSFKLPYCQIATEKGQMEEQFWRSVIFHNHLDYLAKNGYEYEESTKNQATKEQQELLMKMLALSCKLEREFRCVELADLMTQNAVNLAIKYASRSRKLILAQKLSELAVEKAAELTATQVEEEEEEEDFRKKLNAGYSNTATEWSQPRFRNQVEEDAEDSGEADDEEKPEIHKPGQNSFSKSTNSSDVSAKSGAVTFSSQGRVNPFKVSASSKEPAMSMNSARSTNILDNMGKSSKKSTALSRTTNNEKSPIIKPLIPKPKPKQASAASYFQKRNSQTNKTEEVKEENLKNVLSETPAICPPQNTENQRPKTGFQMWLEENRSNILSDNPDFSDEADIIKEGMIRFRVLSTEERKVWANKAKGETASEGTEAKKRKRVVDESDETENQEEKAKENLNLSKKQKPLDFSTNQKLSAFAFKQE [WDHD1]”, the “solubility in G1/S (log2)” value in series [1] is -0.1. For the same substance, the melting temperature in series [2] (cell cycle stage: G1/S) came out at 47.9 °C; in series [2] (cell cycle stage: mitosis), 49.6 °C. Further, the “solubility change mitosis (log2)” value in series [3] is -0.0991. Besides, the thermal stability score was determined as 2.58 in series [4] (setting [5]) and 6.16 in series [4] (cell cycle stage: mitosis).
Consider RSRC2, for which, in series [1], the “solubility in G1/S (log2)” value was -0.575. In addition, the melting temperature was determined as 51.8 °C in series [2] (cell cycle stage: G1/S) and 52.2 °C in series [2] (cell cycle stage: mitosis). The “solubility change mitosis (log2)” value in series [3] stood at 0.135. Further, the results for the thermal stability score in series [4] (setting [5]) and in series [4] (cell cycle stage: mitosis) were 2.6 and 0.263, respectively.
